What was measured:
[1] = molecular target: T1, hROR2 (human, UniProt Q01974); test: flow cytometry on 63-12 / hROR2 cells; anti-His Alexa Fluor 488
T1 construct: full length, on the cell surface; also called 63-12 / hROR2; ROR2 on T47D cells
Method: (§1) Flow cytometry: Cells were stained using standard flow cytometry methodology. Briefly, for purified anti-ROR1 Fab (FIG. 3), 0.1-1×10⁶ cells were stained with 1000 ng/100 μL of Fab on ice for 1 h. After washing twice with ice-cold flow cytometry buffer (PBS containing 1% (v/v) BSA, 0.1% sodium azide and 1 mM EDTA), the cells were incubated with a 1:1000 dilution of a mouse anti-His tag mAb conjugated to Alexa Fluor 488 (Qiagen) in 100 μL flow cytometry buffer on ice for 30 min. For purified anti-ROR1 IgG1 (FIG. 8), 0.1-1×10⁶ cells were blocked by 4% goat serum for 15 min at room temperature and then incubated with 100 ng/100 μL of IgG on ice for 1 h. After washing twice with ice-cold flow cytometry buffer, cells were stained with a 1:500 dilution of goat anti-human IgG, Fcγ pAbs conjugated to APC (Jackson ImmunoResearch) in 100 μL flow cytometry buffer on ice for 30 min. For commercial goat anti human ROR1 polyclonal antibody (FIG. 8), 0.1-1×10⁶ cells were stained with 200 ng/100 μL of Ab on ice for 1 h. […] Finally, 4′,6-diamidino-2-phenylindole (DAPI) was added to a final concentration of 100 ng/mL to exclude dead cells from the analysis. Cells were analyzed using a FACSCalibur instrument (BD Biosciences) and FlowJo analytical software (Tree Star, Ashland, Oreg.).

[2] = molecular target: T2, Ig (human, UniProt Q01973); test: ELISA on directly coated hFc fusion proteins of hROR1 domains; anti-His-HRP; A405
T2 construct: Ig domain of the extracellular domain; also called hFc-hROR1-Ig
Method: (§2) ELISA: For ELISA (FIG. 2), each well of a 96-well Costar 3690 plate (Corning, Corning, N.Y.) was coated with 100 ng anti-human IgG1 Fc in 25 μL coating buffer (0.1 M Na₂CO₃, 0.1 M NaHCO₃, pH 9.6) for 1 h at 37° C. After blocking with 150 μL 3% (w/v) BSA/TBS for 1 h at 37° C., hFc-hROR1 or hFc-mROR1 was captured following incubation at 100 ng/50 μL for 1 h at 37° C. Then 100 ng/50 μL of Fab was applied in each well at 37° C. 2 h later, 50 μL of a 1:1000 dilution of a mouse anti-His tag mAb conjugated to horse radish peroxidase (HRP) (R&D Systems, Minneapolis, Minn.) in 1% (w/v) BSA/TBS was used to detect the Fab. To determine the epitopes (FIG. 4), hFc fusion proteins containing different domains of hROR1 were coated directly, followed by incubation with Fab before detection by mouse anti-His tag mAb conjugated to HRP. Washing with PBS was repeated and colorimetric detection was performed using 2,2′-azino-bis(3-ethylbenzthiazoline)-6-sulfonic acid (Roche) as substrate according to the manufacturer's directions. The absorbance was measured at 405 nm using a SpectraMax M5 microplate reader (Molecular Devices; Sunnyvale, Calif.) and SoftMax Pro software (Molecular Devices).

[3] = molecular target: T3, Fr; test: as above
T3 construct: also called hFc-hROR1-Fr
Method: as §2

[4] = molecular target: T4, Kr (human, UniProt Q01973); test: as above
T4 construct: Kringle domain of the extracellular domain; also called hFc-hROR1-Kr
Method: as §2

[5] = molecular target: T5, Fr + Ki (human, UniProt Q01973); test: as above
T5 construct: Frizzled and Kringle domains of the extracellular domain; also called hFc-hROR1-Fr-Ki
Method: as §2

[6] = molecular target: T6, hFc-mROR1 (extracellular domain of mouse ROR1 fused to the Fc domain of human IgG1) (human; mouse, UniProt Q9Z139 30-406); test: ELISA; hFc fusion captured by coated anti-human IgG1 Fc; Fab 100 ng/50 µL; anti-His-HRP; A405
T6 construct: extracellular domain; not shown: Fc domain of human IgG1
Method: (§3) The binding of each chimeric rabbit/human Fab to hROR1 and mROR1 fused with human IgG1 Fc (hFc-hROR1 and hFc-mROR1) was analyzed by ELISA. hFc-ROR1 or hFc-mROR1 were captured by anti-human IgG1 Fc antibody immobilized on plate and then incubated with hROR1 specific Fabs comprising a His-tag via detection with mouse anti-His tag.
as §2, with “Washing with PBS was repeated and colorimetric detection was performed using 2,2′-azino-bis(3-ethylbenzthiazoline)-6-sulfonic acid (Roche) as substrate according to the manufacturer's directions.” left out

[7] = molecular target: T7, hFc-hROR1 (extracellular domain of human ROR1 fused to the Fc domain of human IgG1) (human, UniProt Q01973 30-406); test: SPR (Biacore X100); hFc-hROR1 captured by anti-human Fcγ antibody on CM5; Fab as analyte; 1:1 Langmuir fit
T7 construct: extracellular domain; also called hFc-ROR1; not shown: Fc domain of human IgG1
Method: (A) Shown are Biacore X100 sensorgrams obtained for the binding of each Fab to hFc-hROR1 captured by anti-human Fcγ antibody immobilized on CM5 chip after instantaneous background depletion. Fabs were injected at five different concentrations with the highest concentration indicated in table (B), one of the five concentrations was tested in duplicates. The equilibrium dissociation constant (Kd) was calculated from koff/kₒₙ (kₒₙ, association rate constant; koff, dissociation rate constant).
Surface plasmon resonance: Surface plasmon resonance for the measurement of the affinities of all Fabs to hFc-hROR1 and for epitope mapping studies were performed on a Biacore X100 instrument using Biacore reagents and software (GE Healthcare, Piscataway, N.J.). Anti-Human IgG (Fc) antibody was immobilized on a CM5 sensor chip following the instruction of Human Antibody Capture Kit (GE Healthcare, Piscataway, N.J.). The sensor chip included an empty flow cell for instantaneous background depletion. All binding assays used 1×HBS-EP+ running buffer (10 mM HEPES, 150 mM NaCl, 3 mM EDTA (pH 7.4), and 0.05% (v/v) Surfactant P20) and a flow rate of […]. […] The sensor chip was regenerated with […] from the Human Antibody Capture Kit without any loss of binding capacity. Calculation of association (kₒₙ) and dissociation (koff) rate constants was based on a 1:1 Langmuir binding model. The equilibrium dissociation constant (Kd) was calculated from koff/kₒₙ. For epitope mapping studies, each Fab was prepared at 500 nM alone in 1×HBS-EP+ running buffer and then injected in order as indicated in FIG. 5.

[8] = molecular target: T8, hFc-hROR2 (extracellular domain of human ROR2 fused to the Fc domain of human IgG1) (human, UniProt Q01974 34-403); test: ELISA as for hFc-hROR1; third bar series, keyed 'hFc-hROR1' a second time on the sheet, taken as hFc-hROR2 by legend paragraph 27
T8 construct: extracellular domain; not shown: Fc domain of human IgG1
Method: as §3, §2

[9] = molecular target: T9, hROR2-ECD-HIS (human, UniProt Q01974); test: Western blot of denatured, reduced samples; anti-human Fcγ-HRP
T9 construct: extracellular domain; also called hROR2-His; purified extracellular domain of hROR2
Excerpt: The Western blots contained the following samples as indicated: Lane 1: K562 cells ectopically expressing full length of hROR1. Lane 2: untransfected K62 cells. Lane 3: purified extracellular domain of hROR1. Lane 4: purified extracellular domain of hROR2.
Western blotting: Cells or proteins were lysed by 1× sample buffer (containing 1% β-mercaptoethanol) and boiled before running on NuPAGE Novex 4-12% Bis-Tris gels (Invitrogen).

[10] = molecular target: T1, hROR2; test: flow cytometry on T47D cells (ROR2 positive, ROR1 negative); APC goat anti-human Fcγ
Method: as §1

[11] = molecular target: T10, human ROR2 on HEK293 cells (cell microarray) (human, UniProt Q01974 34-943); test: cell microarray (Retrogenix): fixed HEK293 cells over-expressing the protein; AlexaFluor647 anti-human IgG Fc detection
T10 construct: whole, on cells; Expressed on fixed HEK293 cells of the Retrogenix microarray
Method: (§4) ZsGreen1 signals on the left indicate the expression levels of the various human membrane proteins.
(§5) FIG. 28 provides an overview of the Retrogenix Cell Microarray Platform. […] An AlexaFluor647 anti-human IgG Fc detection antibody was used. Primary hits (duplicate spots) were identified by analyzing fluorescence (AlexaFluor647 and ZsGreen1) on ImageQuant. Vectors encoding all hits were sequenced to confirm their correct identities. […] Slides were analyzed as before (FIG. 29).

[12] = molecular target: T11, human CD20 on HEK293 cells (cell microarray) (human, UniProt P11836 1-297); test: as above
T11 construct: whole, on cells; Expressed on fixed HEK293 cells of the Retrogenix microarray
T11 sequence (looked up): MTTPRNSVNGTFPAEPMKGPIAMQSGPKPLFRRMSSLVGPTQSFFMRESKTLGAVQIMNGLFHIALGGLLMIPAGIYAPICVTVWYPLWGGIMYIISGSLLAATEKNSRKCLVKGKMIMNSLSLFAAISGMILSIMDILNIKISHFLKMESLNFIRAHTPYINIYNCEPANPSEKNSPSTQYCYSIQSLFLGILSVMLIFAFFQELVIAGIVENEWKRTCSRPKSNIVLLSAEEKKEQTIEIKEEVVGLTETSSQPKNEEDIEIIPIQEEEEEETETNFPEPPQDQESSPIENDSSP
Method: as §4, §5

[13] = molecular target: T12, StrepII-tagged human ROR1 extracellular domain (human, UniProt Q01973 30-406); test: SPR (Biacore T200); mAb captured by goat anti-human Fcγ IgG on CM5; ROR1-strep as analyte (Example 8); first of two independent measurements; batch of the parental IgG not stated
T12 construct: extracellular domain; also called ROR1-strep; strep-tagged human ROR1
Method: (§6) Affinity screening was then performed to select the best binders. Affinities were determined using a Biacore T200 instrument (GE Healthcare, Buckinghamshire, UK) and data was evaluated using Biacore Evaluation T200 V2.0 software. To capture mAbs, goat α-human Fc-gamma-specific IgG (Jackson ImmunoResearch, #109-005-098) was covalently immobilized on a CM5 chip (GE Healthcare, #BR-1005-30).

[14] = molecular target: T12, StrepII-tagged human ROR1 extracellular …; test: SPR (Biacore T200); mAb captured by goat anti-human Fcγ IgG on CM5; ROR1-strep as analyte (Example 8); second of two independent measurements; batch of the parental IgG not stated
Method: as §6
Briefly, for capturing mAbs in HEK293T supernatants, the undiluted supernatants were captured with a flow of 30 μl/min for 120 s.

T12 sequence (Q01973 other isoform, or with tags, fused parts or gaps): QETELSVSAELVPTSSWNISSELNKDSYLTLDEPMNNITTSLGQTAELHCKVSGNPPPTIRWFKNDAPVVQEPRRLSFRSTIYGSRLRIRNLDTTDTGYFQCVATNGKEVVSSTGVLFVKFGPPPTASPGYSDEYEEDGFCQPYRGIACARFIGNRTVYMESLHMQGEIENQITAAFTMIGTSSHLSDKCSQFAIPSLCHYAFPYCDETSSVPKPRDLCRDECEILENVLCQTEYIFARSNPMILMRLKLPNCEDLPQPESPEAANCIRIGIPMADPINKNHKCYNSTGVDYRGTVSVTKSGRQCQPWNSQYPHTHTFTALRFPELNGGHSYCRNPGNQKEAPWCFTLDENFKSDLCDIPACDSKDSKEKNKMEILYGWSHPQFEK
T7 sequence (Q01973 30-406): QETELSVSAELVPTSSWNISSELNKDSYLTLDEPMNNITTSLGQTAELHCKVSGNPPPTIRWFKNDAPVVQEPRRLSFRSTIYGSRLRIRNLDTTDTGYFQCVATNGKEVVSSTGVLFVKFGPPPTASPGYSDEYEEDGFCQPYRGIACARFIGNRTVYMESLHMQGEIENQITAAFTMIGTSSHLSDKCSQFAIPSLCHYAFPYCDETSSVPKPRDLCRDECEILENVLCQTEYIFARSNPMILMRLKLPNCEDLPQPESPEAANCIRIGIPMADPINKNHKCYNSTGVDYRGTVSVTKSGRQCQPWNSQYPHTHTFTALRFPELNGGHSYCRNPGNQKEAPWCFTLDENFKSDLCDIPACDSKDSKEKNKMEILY
T1 sequence (Q01974 34-943 limits assumed): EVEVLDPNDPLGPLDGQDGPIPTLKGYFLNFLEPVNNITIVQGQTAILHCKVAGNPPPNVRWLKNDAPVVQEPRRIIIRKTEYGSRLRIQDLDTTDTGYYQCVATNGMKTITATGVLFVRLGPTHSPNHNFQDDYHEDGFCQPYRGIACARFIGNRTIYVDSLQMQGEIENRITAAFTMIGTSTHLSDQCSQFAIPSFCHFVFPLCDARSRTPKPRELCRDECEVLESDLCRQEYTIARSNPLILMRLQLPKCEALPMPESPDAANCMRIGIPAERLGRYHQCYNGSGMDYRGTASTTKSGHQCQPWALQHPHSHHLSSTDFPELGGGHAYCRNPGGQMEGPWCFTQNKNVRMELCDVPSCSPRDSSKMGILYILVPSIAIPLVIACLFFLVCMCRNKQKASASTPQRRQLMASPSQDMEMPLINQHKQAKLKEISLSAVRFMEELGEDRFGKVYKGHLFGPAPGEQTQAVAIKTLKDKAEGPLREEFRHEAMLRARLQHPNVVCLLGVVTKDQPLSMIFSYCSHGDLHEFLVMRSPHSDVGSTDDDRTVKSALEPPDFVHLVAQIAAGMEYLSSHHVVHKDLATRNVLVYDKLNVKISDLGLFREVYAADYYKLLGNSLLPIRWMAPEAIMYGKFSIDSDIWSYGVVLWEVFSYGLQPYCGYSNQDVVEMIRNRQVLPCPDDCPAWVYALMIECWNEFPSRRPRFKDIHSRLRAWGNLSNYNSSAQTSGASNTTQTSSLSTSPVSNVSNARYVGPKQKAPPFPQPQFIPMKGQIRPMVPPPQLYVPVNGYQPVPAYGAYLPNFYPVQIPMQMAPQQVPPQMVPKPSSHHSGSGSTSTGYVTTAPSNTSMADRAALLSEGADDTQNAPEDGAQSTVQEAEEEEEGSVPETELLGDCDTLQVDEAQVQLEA
T4 sequence (Q01973 312-391 limits assumed): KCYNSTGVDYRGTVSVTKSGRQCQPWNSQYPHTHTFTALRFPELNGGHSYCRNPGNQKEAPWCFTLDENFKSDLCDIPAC
T2 sequence (Q01973 42-147 limits assumed): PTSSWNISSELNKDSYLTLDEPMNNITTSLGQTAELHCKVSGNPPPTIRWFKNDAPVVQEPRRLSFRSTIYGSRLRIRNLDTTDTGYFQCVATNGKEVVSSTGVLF
T8 sequence (Q01974 34-403): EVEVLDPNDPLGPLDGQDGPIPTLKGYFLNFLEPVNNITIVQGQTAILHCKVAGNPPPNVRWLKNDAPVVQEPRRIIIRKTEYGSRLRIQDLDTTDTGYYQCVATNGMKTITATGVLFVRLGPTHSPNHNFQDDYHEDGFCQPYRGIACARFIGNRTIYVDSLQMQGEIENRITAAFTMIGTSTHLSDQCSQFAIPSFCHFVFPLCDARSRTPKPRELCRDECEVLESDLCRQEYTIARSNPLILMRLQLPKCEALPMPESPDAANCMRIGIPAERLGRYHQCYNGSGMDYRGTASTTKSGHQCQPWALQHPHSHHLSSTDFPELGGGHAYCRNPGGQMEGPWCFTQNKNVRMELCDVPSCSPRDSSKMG
T9 sequence (Q01974 34-403): as above
T10 sequence (Q01974 34-943): as the sequence (Q01974 34-943 limits assumed) above
T6 sequence (Q9Z139 30-406): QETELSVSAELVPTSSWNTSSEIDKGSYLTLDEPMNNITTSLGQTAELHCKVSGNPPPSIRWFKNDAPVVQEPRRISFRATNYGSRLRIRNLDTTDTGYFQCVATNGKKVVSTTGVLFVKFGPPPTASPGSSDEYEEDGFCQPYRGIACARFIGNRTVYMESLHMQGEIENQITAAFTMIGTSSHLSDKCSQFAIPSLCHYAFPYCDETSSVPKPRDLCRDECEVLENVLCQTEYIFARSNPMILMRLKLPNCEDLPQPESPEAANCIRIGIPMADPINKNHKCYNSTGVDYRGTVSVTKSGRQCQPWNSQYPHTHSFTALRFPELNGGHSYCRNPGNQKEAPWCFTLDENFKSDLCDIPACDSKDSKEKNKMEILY
T3 sequence (chain, as listed by the source limits assumed): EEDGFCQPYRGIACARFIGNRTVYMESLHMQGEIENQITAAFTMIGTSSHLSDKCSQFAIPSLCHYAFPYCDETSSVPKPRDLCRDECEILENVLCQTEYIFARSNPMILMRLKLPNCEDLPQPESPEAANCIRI
T5 sequence (Q01973 165-391 limits assumed): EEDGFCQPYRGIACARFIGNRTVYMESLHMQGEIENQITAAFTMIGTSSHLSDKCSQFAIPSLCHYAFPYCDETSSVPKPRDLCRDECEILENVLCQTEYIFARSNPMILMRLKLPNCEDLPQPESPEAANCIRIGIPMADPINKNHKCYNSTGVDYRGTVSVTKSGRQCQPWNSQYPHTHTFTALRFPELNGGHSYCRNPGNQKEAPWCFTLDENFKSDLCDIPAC

B1: ERR1-TOP22 chimeric rabbit/human Fab (Fab, V domains shown)
VH: QSLEESGGRLVTPGTPLTLTCTVSGFSLSSYYMSWVRQAPGKGLEWIGTISSSGSTYYASWVKGRFTISKTSTTVDLKMTSLTTEDTATYFCARDLDYDMDLWGPGTLVTVSS
VL: SYELTQLPSVSVSLGQTARITCGGNSIGSKAVHWYQQKPGLAPGLLIYNDDERPSGVPDRFSGSNSGDTATLTISGAQAGDEADYYCQLWDNNAAVFGGGTQLTVTG
notes: Chimeric rabbit/human Fab with His tag, expressed in E. coli (pET11a); lambda light chain
B1: no binding (tested: 1000 ng/100 µL) [1]; no binding [2]; no binding [3]. B1: no binding [4]; no binding [5]; binds [6]. The Kd [7] was 110 nM, the koff [7] was 0.0813 s⁻¹ and the kon [7] was 737000 M⁻¹ s⁻¹. B1: no binding (tested: 100 ng/50 µL) [8].

B2: XBR1-402 chimeric rabbit/human IgG1 (antibody, V domains shown)
VH: QEQQKESGGGLFKPTDTLTLTCTASGFDISSYYMSWVRQAPGNGLEWIGAIGISGNAYYASWAKSRSTITRNTNLNTVTLKMTSLTAADTATYFCARDHPTYGMDLWGPGTLVTVSS
VL: SYELTQLPSVSVSLGQTARITCEGNNIGSKAVHWYQQKPGLAPGLLIYDDDERPSGVPDRFSGSNSGDTATLTISGAQAGDEADYYCQVWDSSAYVFGGGTQLTVTG
notes: Rabbit variable domains on human IgG1 constant regions (vector PIGG), lambda light chain, from HEK 293F cells, Protein A purified
B2: no binding (tested: 2 µg/mL) [9]; no binding (tested: 100 ng/100 µL) [10]; no binding (tested: 20 µg/mL) [11]. For the same binder, the binding result [12] was “no binding (tested: 20 µg/mL)”, the Kd [13] was 5.1 nM and the koff [13] was 0.00591 s⁻¹. The kon [13] was 1.16e+06 M⁻¹ s⁻¹, the Kd [14] was 5.1 nM and the koff [14] was 0.00556 s⁻¹. It also gave a kon [14] of 1.1e+06 M⁻¹ s⁻¹.

Reference: patent US20220153839A1 (NBE THERAPEUTICS, published 2022)
